From patent US20120115948A1 come the findings set out here.

This test deals with mitotic APC (Anaphase-Promoting Complex immunoprecipitated from mitotic Xenopus extract) (Xenopus). The test can be described thus: immunoprecipitated APC-Cdc20 resuspended in mitotic extract with TAME, beads re-isolated, Western blot. In general terms: In western blotting, separated proteins are transferred to a membrane and probed.

Substance Cdc20 (endogenous Xenopus Cdc20) registered a half-life of dissociation of 1 min.
